Laboratory results published in PMC9482650, “Quantitative fragmentomics allow affinity mapping of interactomes” (Nature Communications, 2022).

T1: DVL1, O14640
T1 sequence (O14640 246-333, limits assumed, looked up): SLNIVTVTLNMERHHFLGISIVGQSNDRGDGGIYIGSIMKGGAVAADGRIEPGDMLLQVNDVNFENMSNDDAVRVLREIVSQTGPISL

T2: SHROOM3, Q8TF72
T2 sequence (Q8TF72 20-120, limits assumed, looked up): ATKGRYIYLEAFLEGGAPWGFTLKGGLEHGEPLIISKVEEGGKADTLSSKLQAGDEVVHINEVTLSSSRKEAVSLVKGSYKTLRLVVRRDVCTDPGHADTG

T3: PDZD7_1, Q9H5P4
T3 sequence (Q9H5P4 81-178, limits assumed, looked up): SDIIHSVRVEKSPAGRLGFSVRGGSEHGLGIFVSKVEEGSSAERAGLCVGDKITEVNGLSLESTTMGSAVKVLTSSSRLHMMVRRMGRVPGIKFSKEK

T4: MPDZ_2, O75970
T4 sequence (O75970 252-347, limits assumed, looked up): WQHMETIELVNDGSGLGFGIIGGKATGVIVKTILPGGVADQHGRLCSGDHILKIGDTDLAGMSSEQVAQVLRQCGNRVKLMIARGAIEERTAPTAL

T5: MPP5, Q8N3R9
T5 sequence (Q8N3R9 251-346, limits assumed, looked up): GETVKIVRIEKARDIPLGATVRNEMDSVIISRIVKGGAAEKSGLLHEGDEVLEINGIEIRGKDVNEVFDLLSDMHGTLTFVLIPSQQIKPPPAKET

T6: SHANK2, Q9UPX8
T6 sequence (Q9UPX8 621-730, limits assumed, looked up): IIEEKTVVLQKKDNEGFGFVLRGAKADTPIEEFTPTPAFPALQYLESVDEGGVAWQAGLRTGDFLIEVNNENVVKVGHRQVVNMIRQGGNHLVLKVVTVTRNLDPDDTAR

T7: RGS12, O14924
T7 sequence (O14924 17-108, limits assumed, looked up): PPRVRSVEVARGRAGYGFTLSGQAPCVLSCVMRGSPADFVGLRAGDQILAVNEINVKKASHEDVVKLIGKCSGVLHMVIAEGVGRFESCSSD

T8: SHROOM4, Q9ULL8
T8 sequence (Q9ULL8 5-102, limits assumed, looked up): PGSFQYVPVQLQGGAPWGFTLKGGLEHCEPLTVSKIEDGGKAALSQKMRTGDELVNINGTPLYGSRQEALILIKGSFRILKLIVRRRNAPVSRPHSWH

T9: MAGI2_1, Q86UL8
T9 sequence (Q86UL8 12-111, limits assumed, looked up): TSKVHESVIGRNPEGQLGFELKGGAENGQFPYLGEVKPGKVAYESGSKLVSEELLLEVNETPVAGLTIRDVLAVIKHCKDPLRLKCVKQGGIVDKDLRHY

T10: MPDZ_12, O75970
T10 sequence (O75970 1857-1958, limits assumed, looked up): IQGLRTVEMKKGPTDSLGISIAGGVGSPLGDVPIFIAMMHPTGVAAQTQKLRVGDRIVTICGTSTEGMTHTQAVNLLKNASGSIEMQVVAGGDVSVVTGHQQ

T11: INTU, Q9ULD6
T11 sequence (Q9ULD6 180-273, limits assumed, looked up): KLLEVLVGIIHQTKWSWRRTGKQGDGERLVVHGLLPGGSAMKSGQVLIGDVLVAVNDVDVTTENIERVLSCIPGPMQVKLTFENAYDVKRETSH

T12: PCLO, Q9Y6V0
T12 sequence (Q9Y6V0 4491-4600, limits assumed, looked up): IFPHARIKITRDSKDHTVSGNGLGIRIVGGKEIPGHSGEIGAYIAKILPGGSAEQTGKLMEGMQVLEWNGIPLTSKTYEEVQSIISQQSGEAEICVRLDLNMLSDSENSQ


Target: MAST3, O60307
Assay: holdup assay
Set-up: key: below the threshold = too weak to quantify, mostly under pKd 3.1 to 4
Conditions: plain residues with an end cap or a label only (N-terminal biotin on a linker: ttds)

MAST3, O60307, sequence (O60307 945-1048): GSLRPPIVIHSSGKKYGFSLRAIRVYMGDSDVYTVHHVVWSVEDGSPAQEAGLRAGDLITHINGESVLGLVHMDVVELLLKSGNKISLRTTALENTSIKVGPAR

Row | Binder | pKd
1 | RLPKIKETTV [FRMPD4, Q14CM0] | below the threshold
2 | SSLQSLETSV [ATP2B4, P23634] | below the threshold

Target: T1, DVL1, O14640
Assay: holdup assay
Set-up: key: below the threshold = too weak to quantify, mostly under pKd 3.1 to 4
Conditions: plain residues with an end cap or a label only (N-terminal biotin on a linker: ttds)

Row | Binder | pKd
3 | RLPKIKETTV [FRMPD4, Q14CM0] | 4.63
4 | SSLQSLETSV [ATP2B4, P23634] | below the threshold

Target: T2, SHROOM3, Q8TF72
Assay: holdup assay
Set-up: key: below the threshold = too weak to quantify, mostly under pKd 3.1 to 4
Conditions: plain residues with an end cap or a label only (N-terminal biotin on a linker: ttds)

Row | Binder | pKd
5 | RLPKIKETTV [FRMPD4, Q14CM0] | below the threshold
6 | SSLQSLETSV [ATP2B4, P23634] | below the threshold

Target: PARD3_1, Q8TEW0
Assay: holdup assay
Set-up: key: below the threshold = too weak to quantify, mostly under pKd 3.1 to 4
Conditions: plain residues with an end cap or a label only (N-terminal biotin on a linker: ttds)

PARD3_1, Q8TEW0, sequence (Q8TEW0 264-372): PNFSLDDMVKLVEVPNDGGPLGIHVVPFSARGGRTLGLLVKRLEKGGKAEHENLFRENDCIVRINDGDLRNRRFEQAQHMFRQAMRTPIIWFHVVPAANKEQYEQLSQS

Row | Binder | pKd
7 | RLPKIKETTV [FRMPD4, Q14CM0] | below the threshold
8 | SSLQSLETSV [ATP2B4, P23634] | below the threshold

Target: PDZD9, Q8IXQ8
Assay: holdup assay
Set-up: key: below the threshold = too weak to quantify, mostly under pKd 3.1 to 4
Conditions: plain residues with an end cap or a label only (N-terminal biotin on a linker: ttds)

PDZD9, Q8IXQ8, sequence (Q8IXQ8 23-120): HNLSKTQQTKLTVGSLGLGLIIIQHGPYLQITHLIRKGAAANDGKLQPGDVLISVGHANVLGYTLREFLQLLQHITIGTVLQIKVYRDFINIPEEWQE

Row | Binder | pKd
9 | RLPKIKETTV [FRMPD4, Q14CM0] | below the threshold
10 | SSLQSLETSV [ATP2B4, P23634] | below the threshold

Target: LIMK1, P53667
Assay: holdup assay
Set-up: key: below the threshold = too weak to quantify, mostly under pKd 3.1 to 4
Conditions: plain residues with an end cap or a label only (N-terminal biotin on a linker: ttds)

LIMK1, P53667, sequence (P53667 155-268): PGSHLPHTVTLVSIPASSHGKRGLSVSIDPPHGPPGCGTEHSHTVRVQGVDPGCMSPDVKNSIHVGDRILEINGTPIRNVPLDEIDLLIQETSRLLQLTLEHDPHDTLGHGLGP

Row | Binder | pKd
11 | RLPKIKETTV [FRMPD4, Q14CM0] | 4.48
12 | SSLQSLETSV [ATP2B4, P23634] | below the threshold

Target: T3, PDZD7_1, Q9H5P4
Assay: holdup assay
Set-up: key: below the threshold = too weak to quantify, mostly under pKd 3.1 to 4
Conditions: plain residues with an end cap or a label only (N-terminal biotin on a linker: ttds)

Row | Binder | pKd
13 | RLPKIKETTV [FRMPD4, Q14CM0] | below the threshold
14 | SSLQSLETSV [ATP2B4, P23634] | below the threshold

Target: SCRIB_4, Q14160
Assay: holdup assay
Set-up: key: below the threshold = too weak to quantify, mostly under pKd 3.1 to 4
Conditions: plain residues with an end cap or a label only (N-terminal biotin on a linker: ttds)

SCRIB_4, Q14160, sequence (Q14160 1095-1204): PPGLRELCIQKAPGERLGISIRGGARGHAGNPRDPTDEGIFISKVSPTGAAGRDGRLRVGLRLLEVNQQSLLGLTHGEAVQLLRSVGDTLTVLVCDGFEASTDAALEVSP

Row | Binder | pKd
15 | RLPKIKETTV [FRMPD4, Q14CM0] | 4.85
16 | SSLQSLETSV [ATP2B4, P23634] | 4.38

Target: MAGI3_3, Q5TCQ9
Assay: holdup assay
Set-up: key: below the threshold = too weak to quantify, mostly under pKd 3.1 to 4
Conditions: plain residues with an end cap or a label only (N-terminal biotin on a linker: ttds)

MAGI3_3, Q5TCQ9, sequence (Q5TCQ9 572-655): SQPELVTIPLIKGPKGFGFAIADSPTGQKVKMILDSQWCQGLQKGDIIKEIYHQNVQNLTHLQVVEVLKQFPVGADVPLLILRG

Row | Binder | pKd
17 | RLPKIKETTV [FRMPD4, Q14CM0] | below the threshold
18 | SSLQSLETSV [ATP2B4, P23634] | below the threshold

Target: RGS3, P49796-9
Assay: holdup assay
Set-up: key: below the threshold = too weak to quantify, mostly under pKd 3.1 to 4
Conditions: plain residues with an end cap or a label only (N-terminal biotin on a linker: ttds)

RGS3, P49796-9, sequence (P49796 other isoform, or with tags, fused parts or gaps): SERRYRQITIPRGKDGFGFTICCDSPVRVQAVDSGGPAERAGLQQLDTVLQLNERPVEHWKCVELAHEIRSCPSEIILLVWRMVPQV

Row | Binder | pKd
19 | RLPKIKETTV [FRMPD4, Q14CM0] | below the threshold
20 | SSLQSLETSV [ATP2B4, P23634] | below the threshold

Target: Inadl_7, Q8NI35
Assay: holdup assay
Set-up: key: below the threshold = too weak to quantify, mostly under pKd 3.1 to 4
Conditions: plain residues with an end cap or a label only (N-terminal biotin on a linker: ttds)

Inadl_7, Q8NI35, sequence (Q8NI35 1219-1332): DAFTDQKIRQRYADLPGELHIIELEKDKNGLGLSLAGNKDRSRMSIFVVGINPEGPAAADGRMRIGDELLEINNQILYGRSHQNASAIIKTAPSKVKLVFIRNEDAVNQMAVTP

Row | Binder | pKd
21 | RLPKIKETTV [FRMPD4, Q14CM0] | below the threshold
22 | SSLQSLETSV [ATP2B4, P23634] | below the threshold

Target: GRIP2_2, Q9C0E4
Assay: holdup assay
Set-up: key: below the threshold = too weak to quantify, mostly under pKd 3.1 to 4
Conditions: plain residues with an end cap or a label only (N-terminal biotin on a linker: ttds)

GRIP2_2, Q9C0E4, sequence (Q9C0E4 137-245): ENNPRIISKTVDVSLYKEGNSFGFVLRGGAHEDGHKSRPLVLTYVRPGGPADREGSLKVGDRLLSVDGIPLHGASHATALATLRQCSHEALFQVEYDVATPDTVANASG

Row | Binder | pKd
23 | RLPKIKETTV [FRMPD4, Q14CM0] | below the threshold
24 | SSLQSLETSV [ATP2B4, P23634] | below the threshold

Target: T4, MPDZ_2, O75970
Assay: holdup assay
Set-up: key: below the threshold = too weak to quantify, mostly under pKd 3.1 to 4
Conditions: plain residues with an end cap or a label only (N-terminal biotin on a linker: ttds)

Row | Binder | pKd
25 | RLPKIKETTV [FRMPD4, Q14CM0] | below the threshold
26 | SSLQSLETSV [ATP2B4, P23634] | below the threshold

Target: TJP1_3, Q07157
Assay: holdup assay
Set-up: key: below the threshold = too weak to quantify, mostly under pKd 3.1 to 4
Conditions: plain residues with an end cap or a label only (N-terminal biotin on a linker: ttds)

TJP1_3, Q07157, sequence (Q07157 416-512): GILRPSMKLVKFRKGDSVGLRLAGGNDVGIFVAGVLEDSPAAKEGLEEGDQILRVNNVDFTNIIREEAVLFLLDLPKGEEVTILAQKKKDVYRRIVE

Row | Binder | pKd
27 | RLPKIKETTV [FRMPD4, Q14CM0] | below the threshold
28 | SSLQSLETSV [ATP2B4, P23634] | below the threshold

Target: NHERF4_3, Q86UT5
Assay: holdup assay
Set-up: key: below the threshold = too weak to quantify, mostly under pKd 3.1 to 4
Conditions: plain residues with an end cap or a label only (N-terminal biotin on a linker: ttds)

NHERF4_3, Q86UT5, sequence (Q86UT5 325-412): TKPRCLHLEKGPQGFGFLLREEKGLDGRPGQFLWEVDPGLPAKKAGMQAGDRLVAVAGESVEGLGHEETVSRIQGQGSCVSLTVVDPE

Row | Binder | pKd
29 | RLPKIKETTV [FRMPD4, Q14CM0] | below the threshold
30 | SSLQSLETSV [ATP2B4, P23634] | below the threshold

Target: T5, MPP5, Q8N3R9
Assay: holdup assay
Set-up: key: below the threshold = too weak to quantify, mostly under pKd 3.1 to 4
Conditions: plain residues with an end cap or a label only (N-terminal biotin on a linker: ttds)

Row | Binder | pKd
31 | RLPKIKETTV [FRMPD4, Q14CM0] | below the threshold
32 | SSLQSLETSV [ATP2B4, P23634] | below the threshold

Target: T6, SHANK2, Q9UPX8
Assay: holdup assay
Set-up: key: below the threshold = too weak to quantify, mostly under pKd 3.1 to 4
Conditions: plain residues with an end cap or a label only (N-terminal biotin on a linker: ttds)

Row | Binder | pKd
33 | RLPKIKETTV [FRMPD4, Q14CM0] | below the threshold
34 | SSLQSLETSV [ATP2B4, P23634] | below the threshold

Target: T7, RGS12, O14924
Assay: holdup assay
Set-up: key: below the threshold = too weak to quantify, mostly under pKd 3.1 to 4
Conditions: plain residues with an end cap or a label only (N-terminal biotin on a linker: ttds)

Row | Binder | pKd
35 | RLPKIKETTV [FRMPD4, Q14CM0] | 4.61
36 | SSLQSLETSV [ATP2B4, P23634] | below the threshold

Target: T8, SHROOM4, Q9ULL8
Assay: holdup assay
Set-up: key: below the threshold = too weak to quantify, mostly under pKd 3.1 to 4
Conditions: plain residues with an end cap or a label only (N-terminal biotin on a linker: ttds)

Row | Binder | pKd
37 | RLPKIKETTV [FRMPD4, Q14CM0] | below the threshold
38 | SSLQSLETSV [ATP2B4, P23634] | 4.68

Target: T9, MAGI2_1, Q86UL8
Assay: holdup assay
Set-up: key: below the threshold = too weak to quantify, mostly under pKd 3.1 to 4
Conditions: plain residues with an end cap or a label only (N-terminal biotin on a linker: ttds)

Row | Binder | pKd
39 | RLPKIKETTV [FRMPD4, Q14CM0] | below the threshold
40 | SSLQSLETSV [ATP2B4, P23634] | below the threshold

Target: T10, MPDZ_12, O75970
Assay: holdup assay
Set-up: key: below the threshold = too weak to quantify, mostly under pKd 3.1 to 4
Conditions: plain residues with an end cap or a label only (N-terminal biotin on a linker: ttds)

Row | Binder | pKd
41 | RLPKIKETTV [FRMPD4, Q14CM0] | below the threshold
42 | SSLQSLETSV [ATP2B4, P23634] | 3.53

Target: MAGI3_5, Q5TCQ9
Assay: holdup assay
Set-up: key: below the threshold = too weak to quantify, mostly under pKd 3.1 to 4
Conditions: plain residues with an end cap or a label only (N-terminal biotin on a linker: ttds)

MAGI3_5, Q5TCQ9, sequence (Q5TCQ9 847-941): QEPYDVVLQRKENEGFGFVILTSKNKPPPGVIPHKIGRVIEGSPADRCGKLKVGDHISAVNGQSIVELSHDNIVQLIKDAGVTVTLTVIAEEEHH

Row | Binder | pKd
43 | RLPKIKETTV [FRMPD4, Q14CM0] | below the threshold
44 | SSLQSLETSV [ATP2B4, P23634] | below the threshold

Target: T11, INTU, Q9ULD6
Assay: holdup assay
Set-up: key: below the threshold = too weak to quantify, mostly under pKd 3.1 to 4
Conditions: plain residues with an end cap or a label only (N-terminal biotin on a linker: ttds)

Row | Binder | pKd
45 | RLPKIKETTV [FRMPD4, Q14CM0] | below the threshold
46 | SSLQSLETSV [ATP2B4, P23634] | below the threshold

Target: T12, PCLO, Q9Y6V0
Assay: holdup assay
Set-up: key: below the threshold = too weak to quantify, mostly under pKd 3.1 to 4
Conditions: plain residues with an end cap or a label only (N-terminal biotin on a linker: ttds)

Row | Binder | pKd
47 | RLPKIKETTV [FRMPD4, Q14CM0] | below the threshold
48 | SSLQSLETSV [ATP2B4, P23634] | below the threshold
